Residue numbers refer to the chain shown, from its start.
B1: LK-RB1-13 (antibody, human IgG4 S228P, kappa, V domains shown)
VH: QVTLKESGPGIVKPSQTLSLTCSFSGFSLSISGTGIGWIRQPSGKGLEWLAHIWWDDDKYYNPSLKSQVTISKDTSTKQVFLNITSVDTADTATYYCTRTELGRGDFWGQGTSVTVSS
VL: DILLTQSPAILSVSPGDRVSFSCRASQSTGTNIHWYQRRTNGSPRLLIKYGSESISGIPSRFSGSGTGTDFTLTINSVESEDIADYYCQQSYSWPYTFGGGTKLEIKR
B2: LK-RB1-15 (antibody, human IgG4 S228P, kappa, V domains shown)
VH: B1 VH
VL: B1 VL with T29I
B3: LK-RB1-34 (antibody, human IgG4 S228P, kappa, V domains shown)
VH: QVQLQQSGAELVKPGASVKLSCKASGYTFTEYTIHWVKQRSGQGLEWIGWFYPGSDSIKYNEKFKDKATLTADKSSSTVYMELSRLTSEDSAVYFCSRHEGPYFTSQYYFDYWGQGTTLTVSS
VL: DILLTQSPAILSVSPGERVSFSCRASRYIGTSIHWYQQRTNGSPRLLIKYASESISGIPSRFSGSGSGTDFTLSINSVESEDIADYYCQQSNTWPLTFGAGTKLELKR
B4: LK-RB1-21 (antibody, human IgG4 S228P, kappa, V domains shown)
VH: QVQLQQPGAELVKPGASVKMSCKASGYIFTDYWTTWVKQRPGQGLEWIGDIYPVSGSTNYNEKFKNKATLTVDTSSSTAYMQLSSLTSEDSAVYYCARALGRRYYFDYWGQGTTLTVSS
VL: DIVMTQSHKFMSTSIGDRVSITCKASQDVSTAVAWCQQKPGQSPKSLIYSASYRYTGIPDRFTGSGSGTDFTFTISSVQAEDLAVYYCQQHYTNPVTFGTGTKLELKR
B5: LK-RB1-12 (antibody, human IgG4 S228P, kappa, V domains shown)
VH: QVQLQQSGTELVRPGSSVMISCKASGYAFSTYWMDWVKQRPGQGLEWIGQIYPGDGATNYNGKFKGKATLTADKSSITAYMHLSSLTSEDSAVYFCLRSRDYDGWFFDVWGAGTTVTVSS
VL: DIVMTQSHKFMSTSIGDRVSITCKASQDVSSAVAWYQQKPGQSPKLLIYWASTRHTGVPDRFTGSGSGTDYTLTFSSVQAEDLALYYCQQHYSTPWTFGGGTKLEIKR
B6: LK-RB1-25 (antibody, human IgG4 S228P, kappa, V domains shown)
VH: QIQLVQSGPELKKPGETVKISCKASGYTFTSYGMNWMKQAPGEGLKWMGWINTYSGVPTYADDFKGRFAFSLETSATTVYLQINNLKNEDKATYFCARRGRDSVVGHFDVWGTGTTVTVSS
VL: B5 VL with I15V, S30N, S31T, Y71F, F75I, S93T, T94I, W96F, G100S
B7: LK-RB1-33 (antibody, human IgG4 S228P, kappa, V domains shown)
VH: B6 VH with E16D, M37V, A61G, T77S, V79A, K87E, K91T
VL: B5 VL with I15V, S30N, S31T, Y71F, F75I, S93T, T94I, W96F, G100S, K103R
B8: LK-RB1-20 (antibody, human IgG4 S228P, kappa)
heavy: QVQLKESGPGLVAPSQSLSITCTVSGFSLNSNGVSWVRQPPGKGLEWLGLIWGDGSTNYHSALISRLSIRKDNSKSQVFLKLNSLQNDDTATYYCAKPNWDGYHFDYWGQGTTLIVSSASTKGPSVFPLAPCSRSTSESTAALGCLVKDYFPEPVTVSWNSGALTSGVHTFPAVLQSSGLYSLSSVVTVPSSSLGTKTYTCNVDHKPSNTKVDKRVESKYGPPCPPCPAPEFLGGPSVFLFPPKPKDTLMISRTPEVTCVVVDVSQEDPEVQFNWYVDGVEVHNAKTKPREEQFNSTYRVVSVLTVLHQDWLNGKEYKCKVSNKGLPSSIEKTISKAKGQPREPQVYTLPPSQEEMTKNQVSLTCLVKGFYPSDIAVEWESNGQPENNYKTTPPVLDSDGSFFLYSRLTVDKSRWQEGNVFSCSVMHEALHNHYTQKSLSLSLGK
light: DIQMNQSPSSLSASLGDTITITCHASQNIDFWLSWYQQKPGNIPKLLIYKASNLHTGVPSRFSGSGSGTGFTLTISSLQPEDIATYYCQQGQSYPLTFGAGTKLELKRTVAAPSVFIFPPSDEQLKSGTASVVCLLNNFYPREAKVQWKVDNALQSGNSQESVTEQDSKDSTYSLSSTLTLSKADYEKHKVYACEVTHQGLSSPVTKSFNRGEC
B9: LK-RB1-16 (antibody, human IgG4 S228P, kappa, V domains shown)
VH: QVQLKESGPGLVAPSQSLSITCTVSGFSLISNAISWVRQPPGKGLEWLGVIWGDGNTIYHSALRSRLTISKDNSKSQVFLKLNSLQIDDTATYYCAKANWDGYYFDYWGQGTTLTVSS
VL: DIQMNQSPSSLSASLGDTITITCHASQSVDFWLNWYQQKPGNIPKLLISKASNLHTGVPSRFSGSGSGTTFTLTISSLQPEDIATYYCQQGQSYPLTFGSGTKLEIKR
B10: LK-RB1-23 (antibody, human IgG4 S228P, kappa, V domains shown)
VH: QVQLQQTGAELVRPGSSVKLSCKASGYTFTNYWMDWVKQRPGQGLEWIGNIHPFGNETHYNQKFKDKATLTVDKSSSTAYMQLSSLTSEDSAVYYCARGLLLYFDVWGTGTTVTVSS
VL: DIQMTQSPASQSVSVGETVTITCRASENIYSNLAWYQQKQGKSPQLLVYGATNLADGVSLRFSGSGSGTQYSLKINSLQSEDFGSYYCQHFWGIPWTFGGGTKLEIKR
B11: LK-RB1-27 (antibody, human IgG4 S228P, kappa, V domains shown)
VH: QVQLQQSGPELVKPGASVRMSCKASGYTFTSHYIHWMKQRPGQGLEWIGWIYPGDGHTKYHEKFKDRATLTADTSSITAYMRLSSLTSEDSAIYYCVYYSDSWFPYWGQGTLVTVSA
VL: B10 VL with Q11L, Q45H, G50A, S59P, L60S, S85N, I94S
B12: LK-RB1-18 (antibody, human IgG4 S228P, kappa, V domains shown)
VH: QVQLKESGPGLVAPSQSLSITCTVSGFSLTNSGVTWIRQPPGKGLEWLGVIWGDGSTNYHSALISRLSISKDNSKSQVFLKLNSLQTDDTATYYCAKPHWDYYNMDYWGQGTSVTVSS
VL: DIQMTQTPSSLSASLGDRVTISCRASQDISNYLNWYQQKPDGTVKLLIYFTSRLHSGVPSRFSGSGSGTDYSLTISNLEQEDFATYFCQQGITLPLTFGAGTKLELKR
B13: LK-RB1-26 (antibody, human IgG4 S228P, kappa, V domains shown)
VH: B12 VH with N31S, S32Y, T35S, I37V, V50I, H99N, N104A
VL: B12 VL with P8T, Y32F, V44F, Y49S, F50Y, R53T, F83V, I92N, E105A
B14: LK-RB1-19 (antibody, human IgG4 S228P, kappa, V domains shown)
VH: QVQLKESGPGLVAPSQNLSITCTVSGFSLTSYGVSWVRQPPGKGLEWLGIIWGDGNTDYHSALISRLSIRKDNSKSQVFLKLNSLKSDDTATYYCAKPHWEYYTMDYWGQGTSVTVSS
VL: B12 VL with P8T, Y32F, F50S, S76A, F83V, I92N
B15: LK-RB1-30 (antibody, human IgG4 S228P, kappa, V domains shown)
VH: B12 VH with N31S, S32Y, T35S, S56N, H99S, N104A
VL: VIQMTQTTSSLSASLGDRVTISCRASQDISNYVNWYQQRPDGTVKLLISYTSRLHSGVPSRFSGSGSGTDYSLTITNLEQEDIATYFCQQGITLPCTFGGGTKLEINR
B16: LK-RB1-22 (antibody, human IgG4 S228P, kappa, V domains shown)
VH: B14 VH with N17S, D58N, I64T, R70S, K86R, S87T, E101D, Y102H, T104S
VL: B12 VL with P8T, Y32F, F50Y, V58A, E79D, F83I, I92N
B17: LK-RB1-24 (antibody, human IgG4 S228P, kappa, V domains shown)
VH: QVQLQQPGAELVNPGTSVNLSCKASGYTFTGYWMHWVKQRPGQGLEWIGMIHPNNGGTIYNERFNGKATLTVDRSSTTAYIQLSSLTSEDSAVYYCAYWDLDYWGQGTTLTVSS
VL: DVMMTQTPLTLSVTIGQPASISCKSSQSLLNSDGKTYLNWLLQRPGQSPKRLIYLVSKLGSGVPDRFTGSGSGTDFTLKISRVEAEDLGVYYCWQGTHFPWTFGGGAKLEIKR
B18: LK-RB1-11 (antibody, human IgG4 S228P, kappa, V domains shown)
VH: QVTLKESGPGILQPSQTLSLTCSFSGFSLKTSGMSVGWIRQPSGKGLEWLAHIWWNDDKYYNPVLKGRLTISKDTSNNLVFLKIASVVSTDTATYYCVRYGNSHGYWYFDVWGTGTTVTVSS
VL: NIVLTQSPASLAVSLGQRATISCRASESVDSYGNNFIHWYQQKPGQPPKVLIYYASNLEAGVPARFSGSGSRTDFTLTIDPVEAEDAATYYCQQNNEDPYTFGGGTKLEIER
B19: LK-RB1-29 (antibody, human IgG4 S228P, kappa, V domains shown)
VH: QVQLKESGPGLVAPSQNLAITCTVSGFSLTNSGVSWVRQSPGKGLEWLGIIWGDGNTNYHSALISRLSISKDNSKSQVFLKLNSLQTDDTGTYYCAKPNWDYYALDYWGQGTSVTVSS
VL: DIQMTQTASSLFASLGDRVTISCRASQDISNYLNWYQQKPDGSIKLLISYTSRLHSGVPSRFSGSGSGTDYSLSISNLEQEDIATYFCQQGISLPCTFGGGTKLEVNR

Target: T1, human LILRB2 on CHOK1 cells (human, UniProt Q8N423 22-597)
T1 construct: whole, on cells; also called CHOK1-hLILRB2; CHOK1-LILRB2
T1 sequence (Q8N423 22-597): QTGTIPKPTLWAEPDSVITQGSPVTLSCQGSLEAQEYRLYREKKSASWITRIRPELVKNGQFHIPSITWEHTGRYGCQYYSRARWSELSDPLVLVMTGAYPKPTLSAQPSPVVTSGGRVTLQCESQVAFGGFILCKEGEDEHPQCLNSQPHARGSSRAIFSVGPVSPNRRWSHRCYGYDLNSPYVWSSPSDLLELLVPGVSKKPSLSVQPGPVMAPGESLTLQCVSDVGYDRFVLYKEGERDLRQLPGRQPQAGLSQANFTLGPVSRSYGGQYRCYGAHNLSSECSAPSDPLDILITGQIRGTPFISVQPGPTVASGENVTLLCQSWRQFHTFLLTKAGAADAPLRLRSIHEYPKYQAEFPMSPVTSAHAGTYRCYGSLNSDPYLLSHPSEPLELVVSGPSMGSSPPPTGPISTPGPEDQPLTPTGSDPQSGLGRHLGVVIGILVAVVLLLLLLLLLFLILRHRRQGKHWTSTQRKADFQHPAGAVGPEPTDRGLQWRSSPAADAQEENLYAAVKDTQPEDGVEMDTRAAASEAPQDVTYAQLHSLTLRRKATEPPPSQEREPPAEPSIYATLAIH
Test: FACS binding, CHOK1-hLILRB2 cells

Binder | binding result | EC50 [nM]
B1 | no binding | –
B2 | no binding | –
B3 | no binding | –
B4 | no binding | –
B5 | no binding | –
B6 | no binding | –
B7 | no binding | –
B8 | no binding | –
B9 | no binding | –
B10 | no binding | –
B11 | – | 4.95
B12 | no binding | –
B13 | no binding | –
B14 | no binding | –
B15 | no binding | –
B16 | no binding | –
B17 | – | 1.04
B18 | no binding | –
B19 | no binding | –

Target: T2, human LILRB1 on CHOK1 cells (human, UniProt Q8NHL6 24-650)
T2 construct: whole, on cells; also called CHOK1-hLILRB1; CHOK1-LILRB1
T2 sequence (Q8NHL6 24-650): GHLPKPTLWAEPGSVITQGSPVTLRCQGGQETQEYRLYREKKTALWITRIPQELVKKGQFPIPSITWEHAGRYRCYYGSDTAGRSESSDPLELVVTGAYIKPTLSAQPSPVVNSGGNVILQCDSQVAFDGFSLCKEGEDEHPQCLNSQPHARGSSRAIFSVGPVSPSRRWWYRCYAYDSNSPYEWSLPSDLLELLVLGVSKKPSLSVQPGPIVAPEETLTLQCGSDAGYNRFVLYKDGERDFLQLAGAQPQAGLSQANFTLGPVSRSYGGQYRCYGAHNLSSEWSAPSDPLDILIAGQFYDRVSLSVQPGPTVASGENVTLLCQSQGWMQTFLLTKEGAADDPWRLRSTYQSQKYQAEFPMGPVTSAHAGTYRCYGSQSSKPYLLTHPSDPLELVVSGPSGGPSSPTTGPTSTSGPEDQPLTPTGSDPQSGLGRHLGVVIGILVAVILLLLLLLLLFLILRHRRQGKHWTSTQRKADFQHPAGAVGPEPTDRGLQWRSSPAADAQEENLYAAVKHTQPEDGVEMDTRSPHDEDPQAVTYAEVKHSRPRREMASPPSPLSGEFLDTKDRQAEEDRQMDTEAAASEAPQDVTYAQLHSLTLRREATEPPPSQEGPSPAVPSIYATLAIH
Test: FACS binding, CHOK1-hLILRB1 cells

Binder | EC50 [nM]
B1 | 0.2
B2 | 0.64
B3 | 1.56
B4 | 1.88
B5 | 0.17
B6 | 1.07
B7 | 1.13
B8 | 0.85
B9 | 0.81
B10 | 0.73
B11 | 0.71
B12 | 0.58
B13 | 0.51
B14 | 0.3
B15 | 1.06
B16 | 1.76
B17 | 1.48
B18 | 0.61
B19 | 2.38

Target: T2, human LILRB1 on CHOK1 cells
Test: cell-based RBA (FACS): blocking of HLA-G binding to CHOK1-hLILRB1 cells

Binder | EC50 [nM] | Top Inhibition (%)
B1 | 0.42 | 81.8
B2 | 0.79 | 67.3
B3 | 3.69 | 21.7
B4 | 0.53 | 98.1
B5 | 0.37 | 79.2
B6 | 0.62 | 98.1
B7 | 1.38 | 92.7
B8 | 0.52 | 97.4
B9 | 0.53 | 98.2
B10 | 0.56 | 95.3
B11 | 0.9 | 98.7
B12 | 0.47 | 98.7
B13 | 0.69 | 99.6
B14 | 0.49 | 98.2
B15 | 0.7 | 95.6
B16 | 1.4 | 100
B17 | 9.07 | 64.8
B18 | 1.34 | 78.9
B19 | 2.93 | 93.3

— patent publication US20260234247A1 (published 2026)
